Experimental data published in paper PMC3352945.

Key:
imported cpTatC = test: radioligand binding
[1] = biological target: cpTatC (pea (endogenous in pea thylakoids)); test: pull-down

tOE17 V-20F precursor protein, sequence (Q41048 whole entry): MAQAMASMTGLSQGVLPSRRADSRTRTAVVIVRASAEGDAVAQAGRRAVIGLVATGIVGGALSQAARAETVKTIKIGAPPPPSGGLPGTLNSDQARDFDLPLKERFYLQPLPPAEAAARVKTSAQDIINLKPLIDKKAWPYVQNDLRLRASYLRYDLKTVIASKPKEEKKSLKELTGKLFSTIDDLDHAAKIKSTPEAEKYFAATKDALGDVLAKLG
tOE17-GS3-His, sequence (Q41048 whole entry): as above

Substance | stoichiometry N (tOE17 per imported cpTatC) (imported cpTatC) | stoichiometry N (tOE17-GS3-His per cpTatC) [1]
tOE17 V-20F precursor protein (from UniProt Q41048 1-217) (natural protein) | 0.92 | 
tOE17-GS3-His (from UniProt Q41048 1-217) (natural protein) |  | 1.05
